Reference: paper PMC3206906, “P50, the Small Subunit of DNA Polymerase Delta, Is Required for Mediation of the Interaction of Polymerase Delta Subassemblies with PCNA” (PLoS ONE, 2011)

Target: T1, digoxigenin (DIG)-labeled recombinant human PCNA (human, UniProt P12004 1-261, digoxigenin label (DIG Protein Labeling Kit); labeled residues not stated)
T1 construct: proliferating cell nuclear antigen (PCNA), human, recombinant wild type; Same protein as m1, chemically labeled with digoxigenin and used as the probe in the overlay; also called PCNA-DIG; DIG-labeled PCNA
Assay: far-Western, overlay or dot blot; Increasing amounts of non-tagged p50 or purified pol δ4 run on 12% SDS-PAGE and transferred to nitrocellulose; probed with DIG-labeled PCNA in PBS for one hour (1:10,000 dilution of 0.15 mg/ml stock); detected with Anti-DIG-HRP and ECL; films for p50 slightly overexposed
Conditions: both partners purified

T1 sequence (P12004 whole entry): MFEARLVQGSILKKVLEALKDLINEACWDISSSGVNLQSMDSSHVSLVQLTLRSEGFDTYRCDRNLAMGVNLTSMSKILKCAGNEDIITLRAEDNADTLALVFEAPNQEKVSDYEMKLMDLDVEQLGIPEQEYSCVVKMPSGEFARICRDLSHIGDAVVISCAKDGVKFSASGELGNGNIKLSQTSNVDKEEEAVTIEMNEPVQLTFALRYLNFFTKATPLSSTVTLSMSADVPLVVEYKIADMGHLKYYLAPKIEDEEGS

- binding result: binds
B1: p12 subunit of recombinant human DNA polymerase δ four-subunit complex (natural protein, UniProt Q9HCU8 1-107, looked up)
chain: MGRKRLITDSYPVVKRREGPAGHSKGELAPELGEEPQPRDEEEAELELLRQFDLAWQYGPCTGITRLQRWCRAKQMGLEPPPEVWQVLKTHPGDPRFQCSLWHLYPL
notes: also called pol δ4 subunit p12; source: Bombyx mori (silkworm) bioreactor, purified as the pol δ four-subunit complex, resolved by SDS-PAGE
